Reference: the supplement of paper PMC12042874
± gives the uncertainty stated by the source.

Test: amyloid nucleation score (Sup35N fusion, yeast selection) (log enrichment); library NNK1; higher = more nucleation; inactive = no reads after selection
Outline: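 Psi-negative yeast expressed Sup35N fused to peptides of 20 random codons. They were induced 24 hours with 100 μM copper sulfate, grown 7 days at 30°C without adenine and uracil, and their plasmid inserts from input and output were Illumina-sequenced. The nucleation score is the DiMSum log enrichment of output over input reads, centred on the mode score of non-aggregating sequences. Sequences with under 100 input reads were excluded.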

Substance | amyloid nucleation score
TNIALLV | 0.847 ± 0.42
TNRVHLWFVL | 7.57 ± 0.078
TNRWADQTNKDAHRQTCD | -0.591 ± 1.1
TNYWPVIFG | 0.116 ± 0.36
TQFEFFWVPKRHSMVHNCMN | -0.337 ± 0.31
TQVWTQRCPCKEASRPGLRT | -1.19 ± 2.7
TRAHGALYREEVKTWGSRLK | -0.998 ± 0.8
TRAWNGGCGALCRITFDPSC | 2.6 ± 0.13
TRDTLIWFGRFGSMTDWCSW | 0.192 ± 0.63
TRLGYISRDKGYSPCR | -0.146 ± 0.39
TRMGEL | -0.089 ± 0.76
TRNMHKCCNTMTTLLSVLGS | -0.186 ± 0.75
TRSYNWARCTLSGVALGQGQ | -0.724 ± 2.4
TRTAGRSVCPVIQLMSWAAY | 0.277 ± 0.44
TRWWGPLQFVYFPD | -0.17 ± 0.68
TRYGECAGWSGPYIADSGSA | -0.001 ± 0.31
TSDRTKSVLMVYSWV | -0.576 ± 0.92
TSEGHSLRNEEEGSSEGRCK | 0.905 ± 0.51
TSFWLSVKSTNPFNRRQFSD | 0.436 ± 0.35
TSGPN | -0.882 ± 0.6
TSLNNGKSDFLYEARVLLEF | 0.541 ± 0.35
TSLVVVSYMVTL | 1.93 ± 0.42
TSLWCQLRKFNYI | -0.181 ± 0.26
TSMPDLGWAVSVAAQFYNFQ | 5.5 ± 0.077
TSNYAGAISFANSNILLFFV | 3.64 ± 0.14
TSPEVLRAIVSTSLFCCILR | -0.724 ± 2.4

Substance | amyloid nucleation score
TSPSRIMS | 1.12 ± 0.35
TSRGSGSVWLDFFSHHGKIG | -0.218 ± 1.4
TSRIFRCCCNCWSHA | 1.31 ± 0.11
TSSPSVTYLLRYRLQWTLHN | 0.035 ± 0.76
TSTPNVWRKR | inactive
TSYVMPEGFAVGFKMSM | 0.205 ± 0.66
TTCSLVSSAAWMY | -0.223 ± 0.39
TTFVSASSMRRYRCLSLGAC | 0.659 ± 0.85
TTGSLVCKAAPIWFVPTPAF | -1.09 ± 0.84
TTWVVFFEPGAV | -0.297 ± 0.84
TVCYTGEVRMLRS | 4.22 ± 0.068
TVFSSWLTQGSMYV | 1.48 ± 0.44
TVGSIRRNHEVLWGTRILSG | -1.69 ± 2.7
TVLNDYWFSTHKLSIR | 0.958 ± 0.48
TVLSRVFWQRDGFVIAQSDG | inactive
TVRCG | 0.014 ± 0.97
TVRGSTRSKLSGASWQCWRA | -0.023 ± 0.21
TVVESRTPILVYFMGCRVTY | 3.31 ± 0.11
TVVEVRGVEQRHGLNCTNPG | -0.05 ± 0.57
TVVHINHHFRGTFISMAKSR | -1.58 ± 2.1
TWAVSNLSRV | -1.61 ± 0.59
TWCCYCFLRVFFEERE | -0.298 ± 0.33
TWQAWVGCWQYQRMGTEL | 0.256 ± 0.58
TWYLDFFSSPFLVGFSLSFG | 0.633 ± 0.49
TYCRQDRWVGSKKLSCTIDC | -0.025 ± 0.23
TYDALRGYNYHLWSNQFTFY | 4.84 ± 0.066

Substance | amyloid nucleation score
TYIPDIYG | 1.1 ± 0.74
TYKFGYVHVDTFMTVLMHTL | -0.169 ± 0.31
TYPLGNSESISVRLFIQYVT | 1.39 ± 0.12
TYRTWLYLPLQCAIYLGVSL | -0.436 ± 0.64
TYSLYMCADKFRNTLVNKAV | inactive
TYSVTFF | 0.231 ± 0.4
TYWGC | 0.186 ± 1
VAFYGFITKINLEIY | 0.578 ± 0.4
VAGCNVDIDVNMSCRGDMWK | 2.81 ± 0.12
VALDMYCFQYFQTNYYS | 8.411 ± 0.045
VALWGQYGTSIGAIGAVFSH | -0.03 ± 0.54
VASGSCFFRDPKIVIMSFLW | 3.34 ± 0.088
VAVTITYAICDTLILFIEGG | 4.08 ± 0.1
VCDFNVNYMSLVCEIHGT | 0.495 ± 0.56
VCELHLILM | 0.425 ± 0.3
VCFALSI | -0.098 ± 0.46
VCGVRMVLALSRFVLSAINN | 0.177 ± 0.65
VCNCCLHVYIPSRAGNRPMR | 8.251 ± 0.072
VCQLVILGFFLRIVTMCWLW | inactive
VCRLGSNPVQWVGPGSSVFC | 1.23 ± 0.71
VCRVMTSLNEGKLSAECVLV | 0.594 ± 0.32
VCYLGECRGHAIMEYWWSWR | 2.4 ± 0.24
VCYRGECVDSDLLYLSCP | -0.389 ± 1
VDCMGKMVLFLPTFGDGFIV | -0.123 ± 0.32
VDDICIIVANSAGRDEQMSM | 1.16 ± 0.56
VDHVGGWVYWYGTRCTFVDG | -0.048 ± 0.27

Substance | amyloid nucleation score
VDISEGCVSPVCFLMPCLMH | -0.238 ± 0.29
VDLFYE | inactive
VDLISWLVYEKVMSRMNIYN | -0.001 ± 0.4
VDLLFDTNCNSF | inactive
VDLNWRHVDCCYFRFTTQDH | 6.04 ± 0.074
VEAPGLSCAIRGWNTVVIRR | 0.387 ± 0.49
VEGLEDGVWR | 0.876 ± 0.38
VELCHIRSLMFLIQHP | 1.05 ± 0.21
VELLGQYVICPSTRCRIVEN | 0.254 ± 0.47
VERTCGVGTRLFTCYGQVAI | -0.3 ± 0.53
VFEADQNENGTTAPSEAQDR | -0.088 ± 0.3
VFFNLIKRWEVVREDTM | -0.426 ± 0.35
VFGCSGLDKSQWND | 0.434 ± 0.45
VFIIRRDLCWRTSFCLQQEL | 0.965 ± 0.18
VFITSVFVRECNTHESTTIQ | 8.073 ± 0.078
VFKSVFY | 1.99 ± 0.32
VFLKDSTVAGNVMTCDIRVV | 0.078 ± 0.6
VFLLKDRNTTCLWKSVIQQM | 0.494 ± 0.34
VFLQFVMDDSHGLNK | inactive
VFLRL | 4.48 ± 0.1
VFLRRVINTSFGSMMV | 0.976 ± 1.1
VFMIVCK | inactive
VFNVGYLV | -1.21 ± 0.55
VFRGSWCRTNNVIPGLFNKA | 0.488 ± 0.4
VFSVAGASCCRRIGSCWLLR | 0.687 ± 0.97
VFSYGWLYQAPFFRFLHTGF | 0.109 ± 0.74

Substance | amyloid nucleation score
VFYLCSLLCLIVKRLGQGDC | 0.484 ± 0.57
VGGQRKVRSDDVSMDVHTAT | 0.924 ± 0.47
VGHKNSYGRFKDIWIWLWYQ | -0.009 ± 1.4
VGHNGIFYC | -0.063 ± 0.29
VGKITESLLEQLKARHLFCH | 4.41 ± 0.058
VGKVCRTFNRSMGETS | 0.439 ± 0.92
VGNMYYGSTSHNDT | -1.48 ± 1.7
VGSHVRREFCELVYRS | -0.303 ± 0.44
VGSIVELSVHTTSDEKVSCR | 0.316 ± 0.25
VGSLFYKVRPGNNSFVTHIH | 1.08 ± 0.88
VGSPGCMGLVTLNHVP | 0.522 ± 0.24
VGTLSRLSFYVVDAVSAQRG | 0.756 ± 0.81
VGYNNWTLVWGQGAMRVYSG | 0.033 ± 0.34
VHFDRCDLWPGMM | 0.136 ± 0.76
VHGYL | 0.067 ± 0.59
VHNNCRWFAGKFPLSRVVLR | 0.553 ± 1.2
VHRFQ | 0.108 ± 0.61
VHWIWGF | 0.228 ± 0.5
VHWRASCNMQLRADQRICIL | -0.84 ± 0.49
VIFDNGRLIEHCYERLTRPW | -0.327 ± 0.61
VIFYSLYSSVWFDSIYEGLT | -0.566 ± 1.5
VIGCAGSDLNLRSILCFILC | -0.364 ± 0.28
VIGYWGW | -0.164 ± 0.4
VIHGC | -0.14 ± 0.27
